From US20240270840A1 (NECTIN THERAPEUTICS, published 2024)

T1: Human CD112R (PVRIG) (human, UniProt Q6DKI7 41-171, limits assumed)
T1 sequence (looked up): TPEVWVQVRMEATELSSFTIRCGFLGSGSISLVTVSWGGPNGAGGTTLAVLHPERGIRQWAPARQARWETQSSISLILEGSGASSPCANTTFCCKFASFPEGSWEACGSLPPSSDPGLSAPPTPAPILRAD

T2: Human CD112R expressed on cells (human, UniProt Q6DKI7 1-326)
T2 construct: whole, on cells; also called HuCD112R; hCD112R
T2 sequence (looked up): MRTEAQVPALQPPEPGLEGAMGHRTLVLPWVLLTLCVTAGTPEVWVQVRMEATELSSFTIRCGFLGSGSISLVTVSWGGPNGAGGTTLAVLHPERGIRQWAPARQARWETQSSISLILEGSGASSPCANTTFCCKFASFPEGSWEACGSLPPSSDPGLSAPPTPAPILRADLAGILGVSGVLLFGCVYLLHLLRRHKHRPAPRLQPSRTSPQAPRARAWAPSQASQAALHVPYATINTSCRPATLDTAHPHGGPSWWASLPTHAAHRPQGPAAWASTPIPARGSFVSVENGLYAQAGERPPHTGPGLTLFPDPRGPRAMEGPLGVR


What was measured:
Human CD112R (PVRIG) [1] = molecular target: T1, Human CD112R (PVRIG); assay: affinity of glycosylation-motif variants (Table 2; method not named there)
Human CD112R (PVRIG) [2] = molecular target: T1, Human CD112R (PVRIG); assay: binding kinetics to human CD112R (Table 4; scFv variants by paragraph 288)
[3] = molecular target: T2, Human CD112R expressed on cells; assay: flow cytometry; max binding on human NK cells against max binding on cynomolgus CD8 T cells
Experimental: (§1) The humanized mAbs were tested for binding of endogenous and overexpressed human and cynomolgus CD112R.
(§2) Table 7 summarizes EC50 values calculated based on the binding curves of selected humanized mAbs to cynomolgus CD8 T cells and human NK cells, both cells expressing endogenous CD112R of the relevant species. Assay was performed as in Table 6. An anti-CD112R mAb disclosed in WO2016134333 was used for comparison. All the humanized variants have a complete cross-reactivity between the human and cynomolgus targets.

[4] = molecular target: T2, Human CD112R expressed on cells; assay: flow cytometry on human NK cells (endogenous CD112R)
[5] = molecular target: Cynomolgus monkey (Macaca fascicularis) CD112R expressed on cells (cynomolgus monkey (Macaca fascicularis)); assay: flow cytometry on 293T cells expressing cynomolgus CD112R; 99-0.05 nM, three-fold dilutions
[6] = molecular target: Cynomolgus monkey (Macaca fascicularis) CD112R expressed on cells (cynomolgus monkey (Macaca fascicularis)); assay: flow cytometry on 293T cells; EC50 on cynomolgus CD112R against EC50 on human CD112R
Human CD112R (PVRIG) [7] = molecular target: T1, Human CD112R (PVRIG); assay: SPR (Biacore); purified full antibody
[8] = molecular target: Cynomolgus monkey (Macaca fascicularis) CD112R expressed on cells (cynomolgus monkey (Macaca fascicularis)); assay: flow cytometry; EC-50 on cynomolgus CD8 T cells against EC-50 on human NK cells
[9] = molecular target: T2, Human CD112R expressed on cells; assay: flow cytometry competition on 293T cells overexpressing CD112R; antibody 40-0.018 nM; competitor hNectin-2-mIgG2a at 125 nM
Experimental: The humanized anti-CD112R antibodies are potent blockers of CD112R—Nectin-2 interactions. […] The antibodies were added in a range of concentrations of 40-0.018 nM in a series of three-fold dilutions. The amount of bound hNectin-2-mIgG2a was detected by anti-mouse antibodies fluorescently labeled with Dy-light 647 (115-606-071 Jackson immunoresearch) and analyzed by FACS.

[10] = molecular target: T2, Human CD112R expressed on cells; assay: flow cytometry on 293T cells expressing human CD112R; 99-0.05 nM, three-fold dilutions
Experimental: as §1

[11] = molecular target: T2, Human CD112R expressed on cells; assay: flow cytometry on human NK cells (endogenous CD112R); remark: listed apart in the source
Experimental: as §1, §2

[12] = molecular target: Cynomolgus monkey (Macaca fascicularis) CD112R expressed on cells (cynomolgus monkey (Macaca fascicularis)); assay: flow cytometry on cynomolgus CD8 T cells (endogenous CD112R)

| Binder | Kd (Human CD112R (PVRIG) [1]) [nM] | Relative Kd (against VH0Vk0) (Human CD112R (PVRIG) [1]) | Kd (Human CD112R (PVRIG) [2]) [nM] | Relative Kd (against VH0K0) (Human CD112R (PVRIG) [2]) | koff (Human CD112R (PVRIG) [2]) [s⁻¹] | kon (Human CD112R (PVRIG) [2]) [M⁻¹ s⁻¹] | Kd (Human CD112R (PVRIG) [7]) [nM] | Relative Kd (against VH0K0 N28T) (Human CD112R (PVRIG) [7]) | koff (Human CD112R (PVRIG) [7]) [s⁻¹] | kon (Human CD112R (PVRIG) [7]) [M⁻¹ s⁻¹] | further results |
| --- | --- | --- | --- | --- | --- | --- | --- | --- | --- | --- | --- |
| VH0 N28A Vk0 (antibody, human IgG1, V domains shown, Variant of VH0K0) VH: QVQLQQPGAELVKPGTSVKLSCKASGYAFTSYWINWVKLRPGQGLEWIGDIYPGSYIPNYNEKFKNKATLTVDTSSSTAYMQLTSLASEDSALYYCAGGYFDVWGAGTTVTVSS VL: DIVMTQSPSSLSVSAGEKVTMSCKSSQSLLSSGNQKNYLAWYQQKPGQPPKLLIYGASTRESGVPDRFTGSGSGTDFTLTISSVQAEDLAVYYCQNDHSYPYTFGGGTKLEIK | 0.15 | 0.9 |  |  |  |  |  |  |  |  |  |
| VH0K0 as tested in Table 4 (scFv of VH0K0) (scFv, V domains shown) VH: QVQLQQPGAELVKPGTSVKLSCKASGYNFTSYWINWVKLRPGQGLEWIGDIYPGSYIPNYNEKFKNKATLTVDTSSSTAYMQLTSLASEDSALYYCAGGYFDVWGAGTTVTVSS VL: DIVMTQSPSSLSVSAGEKVTMSCKSSQSLLSSGNQKNYLAWYQQKPGQPPKLLIYGASTRESGVPDRFTGSGSGTDFTLTISSVQAEDLAVYYCQNDHSYPYTFGGGTKLEIK |  |  | 0.307 | 1 | 8.89e-05 | 290000 |  |  |  |  |  |
| VH11K2 as tested in Table 4 (humanized scFv variant) (scFv, V domains shown, Format as for m33) VH: QVQLVQSGAEVKKPGSSVKVSCKASGYTFTSYWINWVRQAPGQGLEWIGDIYPGSYIPNYNEKFKNRATLTVDTSASTAYMELSSLRSEDTAVYYCAGGYFDVWGQGTTVTVSS VL: DIVMTQSPDSLAVSLGERATINCKSSQSLLSSGNQKNYLAWYQQKPGQPPKLLIYGASTRESGVPDRFTGSGSGTDFTLTISSLQAEDVAVYYCQNDHSYPYTFGQGTKLEIK |  |  | 0.191 | 0.62 | 0.000105 | 552000 |  |  |  |  |  |
| H11K2 (full humanized antibody) (antibody, V domains shown, Humanized full antibody, human IgG1; also called VH11K2) VH: QVQLVQSGAEVKKPGSSVKVSCKASGYTFTSYWINWVRQAPGQGLEWIGDIYPGSYIPNYNEKFKNRATLTVDTSASTAYMELSSLRSEDTAVYYCAGGYFDVWGQGTTVTVSS VL: DIVMTQSPDSLAVSLGERATINCKSSQSLLSSGNQKNYLAWYQQKPGQPPKLLIYGASTRESGVPDRFTGSGSGTDFTLTISSLQAEDVAVYYCQNDHSYPYTFGQGTKLEIK |  |  |  |  |  |  | 0.112 | 0.89 | 3.77e-05 | 336000 | Ratio Hu/Cyno (max binding) [3]: 1.21; Max binding Hu (MFI a.u - background) [4]: 1020 MFI a.u; EC50 [5]: 0.71 nM; Ratio Cyno/Hu (EC50) [6]: 2.54; Ratio Cyno/Hu (EC-50) [8]: 1.22; EC50 [9]: 0.32 nM; EC-90 [9]: 9.9 nM; EC50 [10]: 0.28 nM; EC50 [11]: 1.06 nM; EC50 [12]: 1.29 nM; Max binding Cyno (MFI a.u - background) [12]: 839 MFI a.u |
| VH0 N28T Vk0 (antibody, V domains shown, Variant of VH0K0; also called VH0K0 N28T) VH: QVQLQQPGAELVKPGTSVKLSCKASGYTFTSYWINWVKLRPGQGLEWIGDIYPGSYIPNYNEKFKNKATLTVDTSSSTAYMQLTSLASEDSALYYCAGGYFDVWGAGTTVTVSS VL: DIVMTQSPSSLSVSAGEKVTMSCKSSQSLLSSGNQKNYLAWYQQKPGQPPKLLIYGASTRESGVPDRFTGSGSGTDFTLTISSVQAEDLAVYYCQNDHSYPYTFGGGTKLEIK | 0.102 | 0.61 |  |  |  |  | 0.126 | 1 | 5.02e-05 | 400000 |  |
| VH11K3 as tested in Table 4 (humanized scFv variant) (scFv, V domains shown, Format as for m33) VH: QVQLVQSGAEVKKPGSSVKVSCKASGYTFTSYWINWVRQAPGQGLEWIGDIYPGSYIPNYNEKFKNRATLTVDTSASTAYMELSSLRSEDTAVYYCAGGYFDVWGQGTTVTVSS VL: DIVMTQSPDSLAVSLGERATINCKSSQSLLSSGNQKNYLAWYQQKPGQPPKLLIYGASTRESGVPDRFSGSGSGTDFTLTISSLQAEDVAVYYCQNDHSYPYTFGQGTKLEIK |  |  | 0.19 | 0.62 | 0.000101 | 530000 |  |  |  |  |  |
